These results are taken from paper PMC7546529 (Nature microbiology, 2020).

This series concerns the molecule itself. As to the kind of experiment: cryo-EM structure.

B1: portal protein (BBRF1 gene-encoded portal complex) (natural protein)
chain: MFNMNVDESASGALGSSAIPVHPTPASVRLFEILQGKYAYVQGQTIYANLRNPGVFSRQVFTHLFKRAISHCTYDDVLHDWNKFEACIQKRWPSDDSCASRFRESTFESWSTTMKLTVRDLLTTNIYRVLHSRSVLSYERYVDWICATGMVPAVKKPITQELHSKIKSLRDRCVCRELGHERTIRSIGTELYEATKEIIESLNSTFIPQFTEVTIEYLPRSDEYVAYYCGRRIRLHVLFPPAIFAGTVTFDSPVQRLYQNIFMCYRTLEHAKICQLLNTAPLKAIVGHGGRDMYKDILAHLEQNSQRKDPKKELLNLLVKLSENKTISGVTDVVEEFITDASNNLVDRNRLFGQPGETAAQGLKKKVSNTVVKCLTDQINEQFDQINGLEKERELYLKKIRSMESQLQASLGPGGNNPAASAPAAVAAEAASVDILTGSTASAIEKLFNSPSASLGARVSGHNESILNSFVSQYIPPSREMTKDLTELWESELFNTFKLTPVVDNQGQRLYVRYSSDTISILLGPFTYLVAELSPVELVTDVYATLGIVEIIDELYRSSRLAIYIEDLGRKYCPASATGGDHGIRQAPSARGDTEPDHAKSKPARDPPPGAGS
With B1, the “stoichiometry N” value was determined as 12.

In general, stoichiometry N refers to the number of molecules, sites or subunits per partner or assembly.
